# Target: β-arrestin-2 (UniProt P32121)
# Assay: anti-HA co-IP after DSS cross-linking, anti-Flag blot
# Conditions: reference: wild type C3aR
Substance,"other: percent decrease vs wild type (sites T463,S465,T466,S470) [%]","binding against the reference (sites S459,T463,S465,T466,S470,S475,S479,T480,T481)"
C3a receptor (C3aR) (from UniProt Q16581) MT2 (T463A/S465A/T466A/S470A),74,
C3a receptor (C3aR) (from UniProt Q16581) MT7 (S459A plus MT1 and MT2 substitutions),,lost

# — paper PMC3471852
